Numbering of substitutions follows the chain as printed.
T1: human MSLN-R1-his protein (human, UniProt Q13421 296-390)
T1 construct: Region 1 of human MSLN, His-tagged; also called human MSLN-R1 protein; hMSLN-R1-his; not shown: His tag
T1 chain: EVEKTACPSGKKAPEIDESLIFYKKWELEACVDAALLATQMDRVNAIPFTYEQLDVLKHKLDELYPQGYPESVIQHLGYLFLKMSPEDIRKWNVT

B1: S009-F1.25.10 (antibody, human IgG1, kappa, V domains shown)
VH: EVQLQQSGPELVKPGASLKISCKASGYSFTDYTMNWVKQSHGKNLEWIGLFNPYNGGISYNQKFKGKATLTVDKSSNTAYMELLSLTSDDSAVYFCARDGRGGFYAMDYWGQGTSVTVSS
VL: DIQMTQTTSSLSASLGDRVTISCRASQDISIYLNWYQQKPDGPVKLLIYYTSRLHSGVPSRFSGSGSGTDFSLTISNLEQEDIATYFCQQGYTLPPWTFGGGTKLEIKR
notes: human-murine chimeric antibody, human IgG1/kappa constant regions
B2: S009-F2.21.4 (antibody, human IgG1, kappa, V domains shown)
VH: EVQLQQSGPELVKPGASVKIPCKASGYTFTDYNMDWVKQSHGKSLEWIGDINPNNGGSIYNQRFKGKATLTVDKSSSTAYMELRSLTSEDSAVYYCARRAYYSTGYFDVWGTGTTVTVSS
VL: QIVLTQSPALMSASPGEKVTITCSASSSISYMHWFQQKPGTSPKLWIYSTSTLASGVPARFSGSGSGTSYSLTISRMEAEDTATYYCQQRSSYPPTFGGGTKLEIKR
notes: as for B1
B3: S009-F2.38.12 (antibody, human IgG1, kappa, V domains shown)
VH: QVQLQQPGTELVKPGASVKLSCKASGYTFTSYWMHWVKQRPGQGLEWIGNINPSNGGTNYNEKIKNKATLTVDKSSSTAYMQLSSLTSEDSAVYYCARWNYYGNYPFDYWGQGTTLTVSS
VL: DIVMTQSQKFMSTTVGDRVSITCKASQNVGTAVAWYQQKPGQSPKLLIYSASNRYTGVPDRFTGSGSGTDFTLTISNMQSEDLADYFCQQYSSYPLTFGAGTKLELKR
notes: as for B1
B4: S009-F1.59.1 (antibody, human IgG1, kappa, V domains shown)
VH: EVKLEGSGGGLVQPGGSMMLSCVATGFTFSSYWMNWVRQSPDRGLEWVAEIRLKSNGFAAFYAESVKGRFTISRDDSKSSVYLQMNNLRTEDTGIYYCTYFVHWGQGILVTVSE
VL: DIVLTQSPTSLAVSLGQRATISCRTSESVEYFGTILIQWYQQKPGQPPKLLIFGASNVESGVPARFSGSGSGTDFSLNIHPVEEEDIAMYFCQQNRKVPYTFGGGTTLELKR
notes: as for B1
B5: S009-F1.7.14 (antibody, human IgG1, kappa)
heavy: not shown
light: QIVLTQSPAIMSASPGEKVTISCSASSSVSYMYWYQQKPGSSPKPWISRTSNLASGVPARFSGSGSGTSYSLTISSMEAEDAATYYCQQYHSYPPTLGAGTKLELKRTVAAPSVFIFPPSDEQLKSGTASVVCLLNNFYPREAKVQWKVDNALQSGNSQESVTEQDSKDSTYSLSSTLTLSKADYEKHKVYACEVTHQGLSSPVTKSFNRGEC
notes: as for B1
B6: S009-F1.62.9 (antibody, human IgG1, kappa, V domains shown)
VH: EVQLQQSGADLVKPGASVKLSCTVFGLNFKDTFMHWVRQRPEQGLEWIGRIDPANDNSIYGPKFQDKATITADTSSNTAYLHLSSLTSEDTAVYYCLYFDNWGHGTTLTVSS
VL: DIVMTQAASSEPVTPGESVSISCRSDKSLLHSNGHNYLYWFLQRPGQSPHLLIYRMSNLASGVPDRFSGSGSGTAFTLRISRVEAEDVGVYYCMQHLEYPLTFGAGTKLELKR
notes: as for B1
B7: S009-F2.21.4 (antibody, human IgG1, kappa, V domains shown)
VH: B2 VH
VL: B2 VL
notes: Human-murine chimeric antibody, human IgG1/kappa constant regions
B8: S009-F2.23.12 (antibody, human IgG1, kappa, V domains shown)
VH: QVQLQQPGTELVKPGASVKLSCKASGYTFTNYWMHWVKQRPGQGLEWIGNINPSNGGPYYNERFRSKATLTVDKSSSTAYMQLSSLTSEDSAVYYCARPYYGSSYGYFDYWGQGTTLTVSS
VL: DIQMTQSPSSLSASLGGKVTITCKASQDINKYIAWYQHKPGKGPRLLIHYTSELQPGIPSRFSGNGSGRDYSFSISNLEPEDIATYYCLQYANPLRTFGGGTKLEIKR
notes: as for B7
B9: S009-F2.16.10 (antibody, human IgG1, kappa, V domains shown)
VH: QVQLQQPGAELIKPGASVKLSCKASGYTFTSYWMHWVKQRPGQGLEWIGIIHPNIGSTNYNERFKSKATLTVDKSSSTAYMQLSSLTSEDSAVYYCARRSSNYGDWYFDVWGTGTTVTVSS
VL: DIVMTQSHRFMSTSVGDRVSITCKASQDVGTSVAWYQQKPGQSPKLLIYWASTQHTGVPDRFTGSGSGTDFTLTINNVQSEDLLDYFCQQYSSYPLTFGAGTKLELKR
notes: as for B7
B10: S009-F2.47.1 (antibody, human IgG1, kappa, V domains shown)
VH: QVQLQQPGAELVKPGASVKLSCKASGYTFTSYWMHWVKQRPGQGLEWIGMIHPNSGSTNYNEKFKSKATLTVDKSSSTAYMQLSSLTSEDSAVYYCARPVVPYWYFDVWGTGTTVTVSS
VL: B3 VL with Y91S
notes: as for B7
B11: S009-F2.13.3 (antibody, human IgG1, kappa, V domains shown)
VH: QVQLQQSGAELMKPGASVKLSCKATGYTFTGYWIEWVKQRPGHGLEWIGEILPGSGSTNYNEKFKGKATFTADTSSNTAYMQLSSLTTEDSAIYYCARAGAWFAYWGQGTLVTVSA
VL: QIVLTQSPAIMSASLGERVTMTCTASSSVSSSYLHWYQQKPGSSPKLWTYSTSNLASGVPARFSGSGSGTSYSLTISSMEAEDAATYYCHQYHRSPWTFGGGTKLEIKR
notes: as for B7
B12: S009-F2.39.3 (antibody, human IgG1, kappa, V domains shown)
VH: QVQLQQPGTELVKPGASVKLSCKASGYTFTNYWMHWVKQRPGQGLEWIGNINPSSGDSYYNERFMSKAKMTVDKSSSTAYMQLSSLTSEDSAVYYCARSGGLWLAFWGPGTLVTVSA
VL: DIVMTQSPSSLAMSVGQKVTMSCKSSQTLLNSVSQNNYLAWYQQKPGQSPTLLVYFASTRESGVPDRFIGGGSGTDFTLTISSVQAEDLADYFCQQHYRTPYTFGGGTNLEIKR
notes: as for B7
B13: S009-F2.17.3 (antibody, human IgG1, kappa, V domains shown)
VH: QVQLQQPGTELVTPGASVKLSCKASGYSFTSYWMHWVKQRPGQGLEWIGNINPSNGDTFYNEKFKNKATLTVDKSSSTAYMQLSSLTSEDSAVYYCARGWLRDYWGQGTTLTVSS
VL: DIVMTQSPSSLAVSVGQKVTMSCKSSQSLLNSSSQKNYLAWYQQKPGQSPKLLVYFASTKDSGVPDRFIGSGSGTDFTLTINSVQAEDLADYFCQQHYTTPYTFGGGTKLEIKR
notes: as for B7

target: T2, human MSLN-FL-his protein (human, UniProt Q13421 296-580); assay: SPR (Biacore), antibody captured on Protein A chip;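 note: measured at 25 °C, analyte injected 240 s in five twofold dilutions from 200 nM, dissociation up to 600 s, double-referenced, fitted with Langmuir 1:1 model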
T2 construct: made in HEK293E cells, purified on nickel column; also called hMSLN-FL-his; human MSLN full-length protein; not shown: His tag
T2 sequence (Q13421 other isoform, or with tags, fused parts or gaps): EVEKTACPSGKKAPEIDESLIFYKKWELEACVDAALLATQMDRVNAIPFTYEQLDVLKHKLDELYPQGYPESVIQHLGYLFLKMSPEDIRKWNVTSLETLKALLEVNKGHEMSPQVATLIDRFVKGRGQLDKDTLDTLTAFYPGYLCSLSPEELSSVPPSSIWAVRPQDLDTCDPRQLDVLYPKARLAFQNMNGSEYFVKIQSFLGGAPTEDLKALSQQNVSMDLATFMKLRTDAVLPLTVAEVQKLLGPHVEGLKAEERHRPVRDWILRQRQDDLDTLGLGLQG

Kd [nM] | koff [s⁻¹] | kon [M⁻¹ s⁻¹] | Binder
186 | 0.00067 | 3600 | B1
29.1 | 0.0227 | 780000 | B2
30.8 | 0.0109 | 354000 | B3
563 | 0.000922 | 1640 | B4
12.8 | 0.00709 | 553000 | B5
745 | 0.000348 | 467 | B6

target: T3, human MSLN-FL-his protein (human, UniProt Q13421 296-580); assay: ELISA, coated MSLN full-length;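 note: binding of chimeric antibodies to plate-bound antigen, read by TMB colour after acid stop, antibody incubated 2 h at 37 °C, negative control antibody run alongside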
T3 construct: also called human MSLN full-length protein; hMSLN-FL-his; not shown: His tag

OD450 at 0.0001 nM [OD450] | OD450 at 0.001 nM [OD450] | OD450 at 0.01 nM [OD450] | OD450 at 0.1 nM [OD450] | OD450 at 1 nM [OD450] | OD450 at 10 nM [OD450] | OD450 at 100 nM [OD450] | OD450 at none (no antibody) [OD450] | Binder
0.05 | 0.09 | 0.41 | 1.93 | 2.46 | 2.56 | 2.95 | 0.06 | B7
0.05 | 0.06 | 0.24 | 1.27 | 2.21 | 2.5 | 2.72 | 0.06 | B8
0.05 | 0.09 | 0.41 | 1.71 | 2.22 | 2.4 | 2.92 | 0.06 | B9
0.06 | 0.1 | 0.45 | 1.78 | 2.31 | 2.4 | 2.57 | 0.06 | B10
0.06 | 0.08 | 0.26 | 1.3 | 2.08 | 2.37 | 2.77 | 0.06 | B11
0.05 | 0.05 | 0.08 | 0.42 | 1.57 | 2.37 | 2.53 | 0.06 | B12
0.05 | 0.06 | 0.13 | 0.64 | 1.93 | 2.48 | 2.81 | 0.06 | B13

Target: T1, human MSLN-R1-his protein
Assay: ELISA, coated MSLN-R1;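 note: serially diluted chimeric antibodies bound to the coated, BSA-blocked plate for 2 h at 37 °C, with TMB colour read after acid stop and a negative control antibody alongside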
Description: The plate was sealed with a plastic film and incubated at 4° C. overnight. The next day, the plate was washed twice with PBST, and a blocking buffer [PBS+2% (w/w) BSA] was added for blocking at room temperature for 2 h. The blocking buffer was discarded, and a chimeric antibody or negative control antibody serially diluted from 100 nM was added at 50 μL/well. After incubation at 37° C. for 2 h, the plate was washed 3 times with PBST. […] After incubation at 37° C. for 2 h, the plate was washed 5 times with PBST. A TMB substrate was added at 50 μL/well for incubation at room temperature for 5-10 min, and then a stop solution (1.0 N HCl) was added at 50 μL/well.

OD450 at 0.0001 nM [OD450] | OD450 at 0.001 nM [OD450] | OD450 at 0.01 nM [OD450] | OD450 at 0.1 nM [OD450] | OD450 at 1 nM [OD450] | OD450 at 10 nM [OD450] | OD450 at 100 nM [OD450] | OD450 at none (no antibody) [OD450] | Binder
0.05 | 0.05 | 0.05 | 0.05 | 0.05 | 0.05 | 0.06 | 0.06 | B7
0.05 | 0.05 | 0.06 | 0.05 | 0.05 | 0.05 | 0.06 | 0.06 | B8
0.05 | 0.06 | 0.09 | 0.44 | 0.94 | 1.62 | 2.03 | 0.06 | B9
0.05 | 0.05 | 0.05 | 0.05 | 0.09 | 0.23 | 0.36 | 0.06 | B10
0.05 | 0.05 | 0.05 | 0.05 | 0.05 | 0.05 | 0.06 | 0.06 | B11
0.05 | 0.05 | 0.05 | 0.05 | 0.05 | 0.06 | 0.07 | 0.06 | B12
0.05 | 0.05 | 0.04 | 0.05 | 0.04 | 0.06 | 0.07 | 0.06 | B13
